Test results: US20240262917A1, “ANTIBODIES AGAINST ALK AND METHODS OF USE THEREOF” (Dana-Farber Cancer Institute, Inc., priority 2021, published 2024)
Each block holds one molecule with its values, some of them ahead of it.

Assays:
full-length ALK receptor = target: T1, full-length ALK receptor (Homo sapiens, UniProt Q9UM73); experiment: Immunoprecipitation of ALK from neuroblastoma cell lysates; assay type: binding; conditions: immunoblotting with commercial anti-ALK C-terminal antibody
T1 construct: endogenous in cells
Source text: Cell lysates from the indicated neuroblastoma cell lines were subjected to immunoprecipitation (IP) using 8G7 and subsequently to immunoblotting analysis using the commercial anti-ALK C-terminal antibody.

ALK [1] = target: T2, ALK (Homo sapiens, UniProt Q9UM73); experiment: Western blot analysis of ALK in cell lysates and conditioned media; assay type: binding; design: endogenous in cells; host or cells: human neuroblastoma lines (NGP, SH-SY5Y, Kelly and others)
Source text: (§1) (A) Western blot analysis of ALK in Kelly and SHEP neuroblastoma cells overexpressing GFP and mutated ALK using the mAb-7 and 8G7 anti-ALK antibodies. The mAb-7 antibody was developed at the Vigny laboratory (INSERM, Unité 706/Université Pierre et Marie Curie, Paris F-75005, France) (Moog-Lutz et al, 2005; PMID: 15886198) and obtained through a Materials Transfer Agreement. (B) Western blot analysis of ALK expression in various non-neuroblastoma cell lines: H1373 (human […]), HeLa (cervical cancer), NIH-3T3 (transformed mouse fibroblast cells) using 8G7 and C26G7 (rabbit monoclonal C-terminal anti-ALK antibody; Cell Signaling Technology; Cat #3333; RRID:AB_836862) anti-ALK antibodies.
(§2) The three HPLC-purified monoclonal antibodies (5H3, 7F7 and 8G7) all of the IgG1 subtype, were tested for their ability to bind to ALK in neuroblastoma cells expressing ALK. Both cell lysates and supernatants from cells grown with and without serum (to increase the expression of ALK) were tested by western blotting. […] (A) Western blot analysis of the indicated hybridoma clones in neuroblastoma cell lines expressing WT (NGP) and mutated (SHSY5Y, Kelly) ALK. NIH3T3 cells were used as controls. (B) Western blot analysis of conditioned media from NGP neuroblastoma and 293T cells engineered to express the WT ALK receptor, with the three ALK mAbs showing binding with the shed ALK extracellular domain. […]
(§3) Cell lysates were prepared in NP-40 buffer (Invitrogen) containing complete protease inhibitor (Roche), phosphatase inhibitor (Roche) and phenylmethylsulfonyl fluoride (PMSF). Lysates were incubated on ice for 20 min and centrifuged at 16,000 g for 15 min at 4° C. Protein concentrations of the supernatants were determined with the DC protein assay kit (Bio-Rad). Protein samples were denatured using NuPAGE LDS sample buffer (Invitrogen) and NuPAGE sample reducing agent (Invitrogen). Proteins were then separated on precast 4-12% Bis-Tris gels (Invitrogen) and transferred to nitrocellulose membranes (Bio-Rad). After blocking in blocking buffer (5% dry milk in TBS with 0.2% Tween-20), membranes were incubated with the primary antibody overnight at 4 °C, washed three times with TBST buffer, chemiluminescent detection performed with the appropriate secondary antibodies and developed using Genemate Blue ultra-autoradiography film (VWR).

ALK [2] = target: T2, ALK; experiment: Screening and subcloning of hybridomas (ELISA, FCM, functional assays); assay type: binding; design: The human ALK extracellular domain (19-682 aa) fused to the mouse Fc gene; made in house; host or cells: 293T cells; conditions: after subcloning by limiting dilution
Procedure: HAT-selected fused cells were distributed in 96 well plates and the hybridoma supernatants were subjected to several rounds of screening. Initial screening was performed using ELISA against human Fc to test antigen binding with the ALK ECD-human Fc fusion protein. […] These were rescreened by FACS against Ba/F3 and neuroblastoma (NB) cells expressing ALK. From this screen, 22 positive hybridoma supernatants were tested in an antigen-binding capture ELISA assay and 11 were subsequently selected for further analysis. (A) Binding of hybridoma supernatants using an antigen-binding capture assay. The plate was coated with goat-anti-mouse IgG Fc, incubated with hybridoma supernatants, followed by ALK-HRP and visualized using an HRP substrate. (B) Binding of selected hybridoma supernatants to a human Fc antibody using ELISA screening. Plates were coated with the ALK ECD-human Fc fusion protein (ALK-hFc) together with an irrelevant hFc protein and visualized using an anti-mouse kappa light chain antibody. Only the supernatants with the highest binding are shown.
Supernatants from individual clones were then screened by ELISA and FACS analysis for ALK binding. Shown here is the viability of NGP neuroblastoma cells (expressing ALK) in the presence of anti-mouse IgG antibody in hybridoma clone supernatants. […]
Target sequence in this assay (Q9UM73 19-682): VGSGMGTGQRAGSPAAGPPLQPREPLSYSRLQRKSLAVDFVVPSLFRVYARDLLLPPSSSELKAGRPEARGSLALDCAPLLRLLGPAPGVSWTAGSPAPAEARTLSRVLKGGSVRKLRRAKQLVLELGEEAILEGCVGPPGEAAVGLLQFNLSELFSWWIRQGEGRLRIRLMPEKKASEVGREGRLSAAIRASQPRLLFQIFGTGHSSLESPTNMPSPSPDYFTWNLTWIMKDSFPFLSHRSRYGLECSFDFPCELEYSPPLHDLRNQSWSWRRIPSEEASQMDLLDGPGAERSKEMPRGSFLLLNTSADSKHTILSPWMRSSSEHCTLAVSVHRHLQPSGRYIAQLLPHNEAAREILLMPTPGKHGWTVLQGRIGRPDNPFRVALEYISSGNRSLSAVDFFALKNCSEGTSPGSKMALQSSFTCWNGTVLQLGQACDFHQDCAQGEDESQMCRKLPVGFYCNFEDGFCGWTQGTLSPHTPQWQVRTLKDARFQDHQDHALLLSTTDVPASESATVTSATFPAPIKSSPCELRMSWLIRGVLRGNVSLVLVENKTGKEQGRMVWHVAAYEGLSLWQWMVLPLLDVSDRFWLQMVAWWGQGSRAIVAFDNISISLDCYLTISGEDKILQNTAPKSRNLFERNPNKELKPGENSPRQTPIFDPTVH

[3] = target: T3, ALK extracellular fragment (Homo sapiens, UniProt Q9UM73); experiment: Sandwich ELISA of shed ALK ECD in patient sera; assay type: binding; conditions: sera of patients with ALK-expressing neuroblastoma
T3 construct: conditioned media containing the shed ALK (ALK 1-654) ECD fragment; from tissue; host or cells: serum of neuroblastoma patients
Source text: Detection of the purified ALK-ECD protein using 8G7 (detection) and 7F7 (capture) anti-ALK antibodies by sandwich ELISA. (A) Standard curve showing the gradual increase in signal with increasing concentrations of the ALK-ECD protein in the media of NGP cells that express cleaved ALK. Quantification is shown below. (B) ELISA of the shed ALK ECD protein in sera from patients with neuroblastoma. Ample diluent buffer was used to dilute the serum samples, Media represents Dulbecco's Modified Eagle media in which human embryonic kidney 293T cells were grown, 293T media, conditioned media from 293T cells; ALK ECD 293T media, media collected from 293T cells in which the ALK-ECD-mFc protein was overexpressed.
We developed a sandwich ELISA technique where two ALK antibodies (for example, 5H3 or 7F7) can be used to capture the ALK extracellular fragment (antigen), and another antibody, such as the 8G7 antibody, can be used to detect the captured ALK extracellular fragment-5H3 or 7F7 complex. The different epitope binding sites of these antibodies on the ALK extracellular fragment protein allow for the development of the sandwich ELISA technique for the detection of the cleaved or shed ALK extracellular fragment in patient serum samples (FIG. 18). […]

ALK [4] = experiment: Western blot analysis of ALK in cell lysates and conditioned media; assay type: binding, human
Source text: as §1, §2
as §3, with “After blocking in blocking buffer (5% dry milk in TBS with 0.2% Tween-20), membranes were incubated with the primary antibody overnight at 4 °C, washed three times with TBST buffer, chemiluminescent detection performed with the appropriate secondary antibodies and developed using Genemate Blue ultra-autoradiography film (VWR).” left out

MMP-9 = MMP-9 (Homo sapiens, UniProt P14780); conditions: cited from earlier work
Sequence of MMP-9 (P14780 94-707): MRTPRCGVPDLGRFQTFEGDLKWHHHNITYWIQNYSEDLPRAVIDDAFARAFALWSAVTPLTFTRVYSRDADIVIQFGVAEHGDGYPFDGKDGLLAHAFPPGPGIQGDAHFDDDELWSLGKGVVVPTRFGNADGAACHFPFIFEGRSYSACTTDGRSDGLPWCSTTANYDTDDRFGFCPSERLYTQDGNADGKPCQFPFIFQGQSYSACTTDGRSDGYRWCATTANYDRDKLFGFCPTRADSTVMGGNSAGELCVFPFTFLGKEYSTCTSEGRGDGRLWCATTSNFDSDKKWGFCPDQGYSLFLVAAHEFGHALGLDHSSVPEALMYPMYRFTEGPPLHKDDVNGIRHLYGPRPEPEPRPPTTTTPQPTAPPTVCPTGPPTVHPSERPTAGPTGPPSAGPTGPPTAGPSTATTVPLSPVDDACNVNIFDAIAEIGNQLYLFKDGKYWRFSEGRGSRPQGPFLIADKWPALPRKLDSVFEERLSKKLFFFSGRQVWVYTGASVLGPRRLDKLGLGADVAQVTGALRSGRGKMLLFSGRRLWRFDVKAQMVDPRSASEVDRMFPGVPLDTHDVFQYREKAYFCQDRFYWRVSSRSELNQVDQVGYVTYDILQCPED

T1 sequence (Q9UM73 19-1620): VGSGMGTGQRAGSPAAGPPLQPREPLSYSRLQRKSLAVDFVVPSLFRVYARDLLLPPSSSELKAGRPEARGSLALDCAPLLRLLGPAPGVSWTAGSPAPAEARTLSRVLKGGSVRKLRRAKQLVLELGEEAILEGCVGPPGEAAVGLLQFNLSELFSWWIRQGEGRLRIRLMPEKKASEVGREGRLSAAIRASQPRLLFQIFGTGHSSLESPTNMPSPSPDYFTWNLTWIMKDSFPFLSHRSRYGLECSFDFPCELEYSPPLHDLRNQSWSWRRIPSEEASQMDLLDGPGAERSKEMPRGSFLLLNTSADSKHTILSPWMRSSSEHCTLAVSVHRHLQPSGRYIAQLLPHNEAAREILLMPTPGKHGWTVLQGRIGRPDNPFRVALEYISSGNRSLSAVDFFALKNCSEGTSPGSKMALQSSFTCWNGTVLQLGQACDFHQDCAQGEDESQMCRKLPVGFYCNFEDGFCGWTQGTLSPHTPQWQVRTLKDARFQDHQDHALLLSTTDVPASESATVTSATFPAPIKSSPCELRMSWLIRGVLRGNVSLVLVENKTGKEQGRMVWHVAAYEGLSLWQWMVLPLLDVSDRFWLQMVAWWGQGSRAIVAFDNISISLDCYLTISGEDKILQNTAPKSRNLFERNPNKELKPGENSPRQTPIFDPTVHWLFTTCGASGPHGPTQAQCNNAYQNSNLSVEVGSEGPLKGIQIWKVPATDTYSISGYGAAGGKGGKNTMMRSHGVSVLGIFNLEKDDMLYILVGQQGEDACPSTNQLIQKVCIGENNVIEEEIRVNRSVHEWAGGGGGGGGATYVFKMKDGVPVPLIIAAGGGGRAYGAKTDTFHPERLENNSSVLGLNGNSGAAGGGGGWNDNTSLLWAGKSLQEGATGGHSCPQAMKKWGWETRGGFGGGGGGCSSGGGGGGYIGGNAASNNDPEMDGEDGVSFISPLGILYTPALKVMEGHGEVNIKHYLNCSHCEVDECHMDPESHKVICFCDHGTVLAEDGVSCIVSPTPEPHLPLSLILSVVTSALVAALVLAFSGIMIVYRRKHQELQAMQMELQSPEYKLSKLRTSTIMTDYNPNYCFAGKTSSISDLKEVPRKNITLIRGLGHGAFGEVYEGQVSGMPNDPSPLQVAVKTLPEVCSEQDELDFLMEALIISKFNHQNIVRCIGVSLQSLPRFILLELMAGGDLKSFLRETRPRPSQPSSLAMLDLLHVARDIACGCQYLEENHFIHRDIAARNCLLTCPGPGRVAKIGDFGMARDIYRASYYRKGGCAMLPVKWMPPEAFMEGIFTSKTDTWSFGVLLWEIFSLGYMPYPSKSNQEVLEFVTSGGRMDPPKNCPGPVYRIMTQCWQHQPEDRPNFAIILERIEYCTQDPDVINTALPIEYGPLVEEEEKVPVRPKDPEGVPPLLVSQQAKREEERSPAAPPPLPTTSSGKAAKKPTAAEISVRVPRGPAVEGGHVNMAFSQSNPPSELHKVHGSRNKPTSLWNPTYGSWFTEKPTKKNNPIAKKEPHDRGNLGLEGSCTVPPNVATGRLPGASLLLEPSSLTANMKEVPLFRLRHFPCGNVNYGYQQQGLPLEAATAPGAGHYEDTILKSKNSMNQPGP
T3 sequence (Q9UM73 19-654): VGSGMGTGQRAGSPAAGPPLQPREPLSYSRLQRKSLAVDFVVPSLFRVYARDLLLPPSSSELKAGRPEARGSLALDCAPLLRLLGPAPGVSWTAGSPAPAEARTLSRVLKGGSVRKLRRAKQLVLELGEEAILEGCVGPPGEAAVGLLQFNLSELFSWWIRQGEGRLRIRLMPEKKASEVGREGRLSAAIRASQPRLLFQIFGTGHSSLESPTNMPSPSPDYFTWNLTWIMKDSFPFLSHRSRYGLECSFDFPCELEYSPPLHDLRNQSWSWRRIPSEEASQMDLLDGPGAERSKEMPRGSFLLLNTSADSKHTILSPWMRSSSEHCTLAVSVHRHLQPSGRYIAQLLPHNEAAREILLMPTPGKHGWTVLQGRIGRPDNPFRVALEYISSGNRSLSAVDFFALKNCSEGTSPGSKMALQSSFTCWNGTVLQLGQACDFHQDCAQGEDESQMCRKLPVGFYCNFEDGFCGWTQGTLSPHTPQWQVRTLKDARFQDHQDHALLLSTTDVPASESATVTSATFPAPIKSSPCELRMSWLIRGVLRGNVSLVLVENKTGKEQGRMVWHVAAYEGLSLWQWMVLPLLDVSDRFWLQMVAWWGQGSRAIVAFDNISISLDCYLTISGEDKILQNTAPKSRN

- immunoprecipitation of ALK (full-length ALK receptor): can immunoprecipitate ALK
- ALK specificity of the clone's monoclonal antibody (ALK [2]): high ALK specificity
B1: 5H3: murine monoclonal IgG1 anti-ALK antibody; VH SEQ ID NO: 13, VL SEQ ID NO: 14 (antibody)
heavy: MEWSWVFLFLLSVIAGVQSQVQLQQSGAELVRPGASVTLSCKASGYTFTDYEMHWVKQTPVHGLEWIGAIDPETGGSAYNQKFKAKAILTADRSSSTAYMELRSLTSEDSAVYYCTRTRYYGSSPAMDYWGQGTSVTVSSAKTTPPSVYPLAPGSAAQTNSMVTLGCLVKGYFPEPVTVTWNSGSLSSGVHTFPAVLQSDLYTLSSSVTVPSS
light: MSSAQFLGLLLLCFQGTRCDIQMTQTTSSLSASLGDRVTISCSASQGIGNYLNWYQQKPDGTVKLLIYYTSSLHSGVPSRFSGSGSGTDYSLTISNLEPEDIATYYCQQYSKLPYTFGGGTKLEIKRADAAPTVSIFPPSSEQLTSGGASVVCFLNNFYPKDINVKWKIDGSERQNGVLNSWTDQDSKDSTYSMSSTLTLTK
- ALK protein recognized by western blotting in cell lysates (ALK [1]; cell lysates of neuroblastoma cells expressing ALK): recognized a 220 kDa protein in the cell lysates of neuroblastoma cells
- ALK protein recognized by western blotting in media (ALK [1]; conditioned media of NB cells, shed ECD domain): an approximately 100 kDa protein in the media
- recognition of circulating ALK extracellular fragment in sera [3]: recognize the circulating ALK extracellular fragment in the sera of patients with ALK-expressing neuroblastoma
- recognition of ALK in immunoblotting assays (ALK [4]): recognize ALK in immunoblotting assays

B2: andecaliximab: selective MMP-9 antibody (Gilead) (antibody, chains of the INN, looked up, V domains shown)
VH: QVQLQESGPGLVKPSETLSLTCTVSGFSLLSYGVHWVRQPPGKGLEWLGVIWTGGTTNYNSALMSRFTISKDDSKNTVYLKMNSLKTEDTAIYYCARYYYGMDYWGQGTLVTVSS
VL: DIQMTQSPSSLSASVGDRVTITCKASQDVRNTVAWYQQKPGKAPKLLIYSSSYRNTGVPDRFSGSGSGTDFTLTISSLQAEDVAVYYCQQHYITPYTFGGGTKVEIK
- clinical activity (MMP-9; combined with standard chemotherapy, gastric and gastroesophageal junction adenocarcinoma): showed activity when combined with standard chemotherapy
- target engagement and dose-limiting toxicity (MMP-9; patients with gastric and gastroesophageal junction adenocarcinoma): achieved target engagement without dose-limiting toxicity
